Test results taken from patent publication US20250276077A1 (IMMUNOME, published 2025).

Key:
[1] = target: T1, Human EphA2 (ephrin receptor A2) on cells (human, UniProt P29317 25-976); experiment: cell-based or functional assay
[2] = target: T1, Human EphA2 (ephrin receptor A2) on …; experiment: cell-based or functional assay; remark: listed apart in the source
[3] = target: T1, Human EphA2 (ephrin receptor A2) on …; experiment: flow cytometry on A549 cells
Method: Surface binding of the antibodies to in vitro grown cell lines was assessed by flow cytometry. Tumor cells were detached from their culture plate using Versene and counted. Cells were staining in BSA-containing buffer with primary antibody for 30 minutes at 4° C. with shaking. Following, cells were washed and stained with secondary PE-labeled antibody for 30 minutes at 4° C. with shaking. Before analysis on an Intellicyt iQue3 scanner, cells were counterstained with DAPI. MedFI values from live, single cells was expressed as fold over isotype control.

T1 sequence (P29317 25-976): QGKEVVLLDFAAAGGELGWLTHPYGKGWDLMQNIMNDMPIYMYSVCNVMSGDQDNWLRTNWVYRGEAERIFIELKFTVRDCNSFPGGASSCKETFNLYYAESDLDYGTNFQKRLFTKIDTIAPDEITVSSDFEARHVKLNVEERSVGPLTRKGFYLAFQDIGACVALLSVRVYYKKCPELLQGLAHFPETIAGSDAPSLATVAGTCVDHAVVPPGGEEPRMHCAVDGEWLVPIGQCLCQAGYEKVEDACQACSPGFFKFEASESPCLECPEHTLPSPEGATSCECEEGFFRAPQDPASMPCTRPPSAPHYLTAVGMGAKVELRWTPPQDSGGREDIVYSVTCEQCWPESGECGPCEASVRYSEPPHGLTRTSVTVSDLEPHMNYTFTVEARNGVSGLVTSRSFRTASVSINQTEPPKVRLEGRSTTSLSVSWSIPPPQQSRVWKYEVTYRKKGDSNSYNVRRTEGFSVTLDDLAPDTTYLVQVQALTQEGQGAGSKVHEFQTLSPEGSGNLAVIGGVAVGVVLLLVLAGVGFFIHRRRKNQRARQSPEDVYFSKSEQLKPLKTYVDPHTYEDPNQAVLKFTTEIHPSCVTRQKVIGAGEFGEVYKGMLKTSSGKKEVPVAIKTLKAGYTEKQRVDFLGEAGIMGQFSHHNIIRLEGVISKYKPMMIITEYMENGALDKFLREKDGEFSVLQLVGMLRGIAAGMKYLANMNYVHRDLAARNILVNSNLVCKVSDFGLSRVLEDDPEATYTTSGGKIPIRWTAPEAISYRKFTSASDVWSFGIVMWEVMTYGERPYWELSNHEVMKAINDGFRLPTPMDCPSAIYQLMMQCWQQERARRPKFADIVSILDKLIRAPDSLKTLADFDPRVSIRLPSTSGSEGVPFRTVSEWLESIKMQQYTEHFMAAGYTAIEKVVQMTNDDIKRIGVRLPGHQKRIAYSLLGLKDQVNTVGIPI

B1: AB-010143 (antibody, mouse IgG2a, V domains shown)
VH: QVQLQQWGAGLLKPSETLSLTCAVYGGSFSDYYWSWIRQPPGKGLEWIGEVNHRGSINYNNYNPSLKSRVTISVDTSKNQFSLKLTSVTAADTAVYYCAKPLRPHCTNGVCYSGDAFDIWGQGTMVTVAS
VL: SYVLTQPPSVSVAPGQTARITCGGNNIGSKNVHWYQQKPGQAPVLVVYDDSDRPSGIPEQFSGSNSGNTATLTISRVEAGDEADYYCQVWDSSSDHVVFGGGTKLTVL
With B1 the “ADCC EC50” value [1] was 0.0251 µM.

B2: AB-010150 (antibody, mouse IgG2a, V domains shown)
VH: QVQLQQWGAGLLKPSETLSLTCAVYGGSFSDYYWSWIRQPPGKGLEWIGEVNHRGSINYNNYNPSLKSRVTISVDTSKNQFSLKLSSVTAADTAVYYCAKPLRPHCTNGVCYSGDAFDIWGQGTMVTVSS
VL: SYVLTQPPSVSVAPGQTARITCGGNNIGSKNVHWYQQKPGQAPVLVVYDDSDRPSGIPEQFSGSNSGNTATLTISRVEAGDEADYYCQVWDSSSDHLVFGGGTKLTVL
For B2, the “ADCC EC50” value [1] was 0.0659 µM.

B3: AB-010151 (antibody, mouse IgG2a, V domains shown)
VH: QVQLQQWGAGLLKPSETLSLTCAVYGGSFSDYYWSWIRQPPGKGLEWIGEINHRGSINYNNYNPSLKSRVTISVDTSKNQFSLKLSSVTAADTAVYYCAKPLRPHCTNGVCYSGDAFDIWGQGTMVTVSS
VL: SYVLTQPPSVSVAPGQTARITCGGNNIGSKNVHWYQQKPGQAPVLVVYDDSDRPSGIPEQFSGSNSGNTATLTISRVEAGDEADYYCQVWDSSSDHLVFGGGTKLTVL
For B3, the “ADCC EC50” value [1] was 0.0333 µM.

B4: AB-010145 (antibody, mouse IgG2a, V domains shown)
VH: QVQLQQWGAGLLKPSETLSLTCAVYGGSFSDYYWSWIRQPPGKGLEWIGEVNHRGSINYNNYNPSLKSRVTISVDTSKNQFSLKLSSVTAADTAVYYCAKPLRPHCTNGVCYSGDAFDIWGQGTMVTVAS
VL: SYVLTQPPSVSVAPGQTARITCGGNNIGSKNVHWYQQKPGQAPVLVVYDDSDRPSGIPEQFSGSNSGNTATLTISRVEAGDEADYYCQVWDSSSDHLVFGGGTKLTVL
For B4, the “ADCC EC50” value [1] was 0.0489 µM.

B5: AB-010141 (antibody, mouse IgG2a, V domains shown)
VH: QVQLQQWGAGLLKPSETLSLTCAVYGGSFSGYYWSWIRQPPGKGLEWIGEVNHRGSINYNNYNPSLKSRVTISVDTSKNQFSLKLTSVTAADTAVYYCAKPLRPHCTNGVCYSGDAFDIWGQGTMVTVAS
VL: SYVLTQPPSVSVAPGQTARITCGGNNIGSKNVHWYQQKPGQAPVLVVYDDSDRPSGIPEQFSGSNSGNTATLTISRVEAGDEADYYCQVWDSSSDHLVFGGGTKLTVL
B5 was tested, and the “ADCC EC50” value [1] was 0.0046 µM.

B6: AB-010147 (antibody, mouse IgG2a, V domains shown)
VH: QVQLQQWGAGLLKPSETLSLTCAVYGGSFSDYYWSWIRQPPGKGLEWIGEVNHRGSINYNNYNPSLKSRVTISVDTSKNQFSLKLTSVTAADTAVYYCAKPLRPHCTNGVCYSGDAFDIWGQGTMVTVAS
VL: SYVLTQPPSVSVAPGQTARITCGGNNIGSKNVHWYQQKPGQAPVLVVYDDSDRPSGIPERFSGSNSGNTATLTISRVEAGDEADYYCQVWDSSSDHLVFGGGTKLTVL
In the case of B6, the “ADCC EC50” value [1] is reported as 0.0794 µM.

B7: AB-010148 (antibody, mouse IgG2a, V domains shown)
VH: QVQLQQWGAGLLKPSETLSLTCAVYGGSFSDYYWSWIRQPPGKGLEWIGEINHRGSINYNNYNPSLKSRVTISVDTSKNQFSLKLSSVTAADTAVYYCAKPLRPHCTNGVCYSGDAFDIWGQGTMVTVAS
VL: SYVLTQPPSVSVAPGQTARITCGGNNIGSKNVHWYQQKPGQAPVLVVYDDSDRPSGIPEQFSGSNSGNTATLTISRVEAGDEADYYCQVWDSSSDHLVFGGGTKLTVL
With B7 the “ADCC EC50” value [1] was 0.045 µM.

B8: AB-010146 (antibody, mouse IgG2a, V domains shown)
VH: QVQLQQWGAGLLKPSETLSLTCAVYGGSFSDYYWSWIRQPPGKGLEWIGEVNHRGSINYNNYNPSLKSRVTISVDTSKNQFSLKLTSVTAADTAVYYCAKPLRPHCTNGVCYSGDAFDIWGQGTMVTVSS
VL: SYVLTQPPSVSVAPGQTARITCGGNNIGSKNVHWYQQKPGQAPVLVVYDDSDRPSGIPEQFSGSNSGNTATLTISRVEAGDEADYYCQVWDSSSDHLVFGGGTKLTVL
With B8 the “ADCC EC50” value [1] was 0.0668 µM.

B9: AB-010144 (antibody, mouse IgG2a, V domains shown)
VH: QVQLQQWGAGLLKPSETLSLTCAVYGGSFSDYYWSWIRQPPGKGLEWIGEINHRGSINYNNYNPSLKSRVTISVDTSKNQFSLKLTSVTAADTAVYYCAKPLRPHCTNGVCYSGDAFDIWGQGTMVTVAS
VL: SYVLTQPPSVSVAPGQTARITCGGNNIGSKNVHWYQQKPGQAPVLVVYDDSDRPSGIPEQFSGSNSGNTATLTISRVEAGDEADYYCQVWDSSSDHLVFGGGTKLTVL
B9 was tested, and the “ADCC EC50” value [1] was 0.0358 µM.

B10: AB-009812 (antibody, mouse IgG2a, V domains shown)
VH: QVQLQQWGAGLLKPSETLSLTCAVYGGSFSDYYWSWIRQPPGKGLEWIGEVNHSGSINYNNYNPSLKSRVTISVDPSKNQFSLKLTSVTAADTAVYYCAKPLRPHCTNGVCYSGDAFDIWGQGTMVTVAS
VL: SYVLTQPPSVSVAPGQTARITCGGNNIGSKNVHWYQQKPGQAPVLVVYDDSDRPSGIPEQFSGSNSGNTATLTISRVEAGDEADYYCQVWDSSSDHLVFGGGTKLTVL
B10 was tested, and the “ADCC Delta, A549 cells” value [2] was 41.1, the “ADCC EC50 (nM), A549 cells” value [2] was 51 nM and the EC50 [3] was 0.0096 µM. The “Flow Delta” value [3] was 568000.

B11: AB-009817 (antibody, mouse IgG2a, V domains shown)
VH: QVQLQQWGAGLLKPSETLSLTCAVYGGSFSDYYWSWIRQPPGKGLEWIGEVNHRGSINYNNYNPSLKSRVTISVDPSKNQFSLKLTSVTAADTAVYYCAKPLRPHCTNAVCYSGDAFDIWGQGTMVTVAS
VL: SYVLTQPPSVSVAPGQTARITCGGNNIGSKNVHWYQQKPGQAPVLVVYDDSDRPSGIPEQFSGSNSGNTATLTISRVEAGDEADYYCQVWDSSSDHLVFGGGTKLTVL
With B11 the “ADCC Delta, A549 cells” value [2] was 0, the “Flow Delta” value [3] was 0 and the binding result [3] was “no binding (tested: tested up to 1 µM)”.

B12: AB-009814 (antibody, mouse IgG2a, V domains shown)
VH: QVQLQQWGAGLLKPSETLSLTCAVYGGSFSDYYWSWIRQPPGKGLEWIGEVNHRGSINYNPSLKSRVTISVDPSKNQFSLKLTSVTAADTAVYYCAKPLRPHCTNGVCYSGDAFDIWGQGTMVTVAS
VL: SYVLTQPPSVSVAPGQTARITCGGNNIGSKNVHWYQQKPGQAPVLVVYDDSDRPSGIPEQFSGSNSGNTATLTISRVEAGDEADYYCQVWDSSSDHLVFGGGTKLTVL
With B12 the “ADCC Delta, A549 cells” value [2] was 36, the “ADCC EC50 (nM), A549 cells” value [2] was 62.8 nM and the EC50 [3] was 0.0115 µM. For the same binder, the “Flow Delta” value [3] was 407000.

B13: AB-009816 (antibody, mouse IgG2a, V domains shown)
VH: QVQLQQWGAGLLKPSETLSLTCAVYGGSFSDYYWSWIRQPPGKGLEWIGEVNHRGSINYNNYNPSLKSRVTISVDASKNQFSLKLTSVTAADTAVYYCAKPLRPHCTNGVCYSGDAFDIWGQGTMVTVAS
VL: SYVLTQPPSVSVAPGQTARITCGGNNIGSKNVHWYQQKPGQAPVLVVYDDSDRPSGIPEQFSGSNSGNTATLTISRVEAGDEADYYCQVWDSSSDHLVFGGGTKLTVL
B13 was tested, and the “ADCC Delta, A549 cells” value [2] was 58, the “ADCC EC50 (nM), A549 cells” value [2] was 12.5 nM and the EC50 [3] was 0.0055 µM. The “Flow Delta” value [3] was 670000.

B14: AB-009813 (antibody, mouse IgG2a, V domains shown)
VH: QVQLQQWGAGLLKPSETLSLTCAVYGGSFSDYYWSWIRQPPGKGLEWIGEVNHAGSINYNNYNPSLKSRVTISVDPSKNQFSLKLTSVTAADTAVYYCAKPLRPHCTNGVCYSGDAFDIWGQGTMVTVAS
VL: SYVLTQPPSVSVAPGQTARITCGGNNIGSKNVHWYQQKPGQAPVLVVYDDSDRPSGIPEQFSGSNSGNTATLTISRVEAGDEADYYCQVWDSSSDHLVFGGGTKLTVL
In the case of B14, the “ADCC Delta, A549 cells” value [2] is reported as 39.9, the “ADCC EC50 (nM), A549 cells” value [2] is reported as 26 nM and the EC50 [3] is reported as 0.0068 µM. The “Flow Delta” value [3] was 578000.
